Reference: US9549967B2, “Regulation of sodium channels by PLUNC proteins” (The University of North Carolina at Chapel Hill, priority 2009, dated 2017)
“Also recorded” adds a separate entry of the source.

T1: αβγENaC (Rattus norvegicus, UniProt P37089+P37090+P37091)
T1 construct: expressed in transfected cells; host or cells: Xenopus laevis oocytes (cRNA injection)
T1 sequence (P37089 1-698): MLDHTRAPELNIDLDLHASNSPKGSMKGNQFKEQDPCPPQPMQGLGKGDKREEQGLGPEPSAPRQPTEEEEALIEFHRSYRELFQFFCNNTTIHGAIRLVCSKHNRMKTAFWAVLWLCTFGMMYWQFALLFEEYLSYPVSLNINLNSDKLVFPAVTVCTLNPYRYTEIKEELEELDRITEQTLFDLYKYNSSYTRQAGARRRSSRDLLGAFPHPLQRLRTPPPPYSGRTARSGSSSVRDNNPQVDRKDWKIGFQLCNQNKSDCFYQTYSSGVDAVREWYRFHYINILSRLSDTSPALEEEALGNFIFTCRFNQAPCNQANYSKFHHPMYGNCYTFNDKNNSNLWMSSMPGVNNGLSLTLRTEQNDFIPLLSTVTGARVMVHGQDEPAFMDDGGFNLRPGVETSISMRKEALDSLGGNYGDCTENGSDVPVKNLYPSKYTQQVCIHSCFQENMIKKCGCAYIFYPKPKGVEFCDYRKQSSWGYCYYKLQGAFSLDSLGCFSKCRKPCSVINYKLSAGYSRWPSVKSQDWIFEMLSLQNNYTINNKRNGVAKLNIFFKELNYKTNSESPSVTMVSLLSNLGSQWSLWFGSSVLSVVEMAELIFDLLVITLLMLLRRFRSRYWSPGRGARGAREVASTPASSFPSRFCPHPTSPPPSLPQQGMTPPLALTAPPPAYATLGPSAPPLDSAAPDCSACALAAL
T1 sequence (P37090 1-638): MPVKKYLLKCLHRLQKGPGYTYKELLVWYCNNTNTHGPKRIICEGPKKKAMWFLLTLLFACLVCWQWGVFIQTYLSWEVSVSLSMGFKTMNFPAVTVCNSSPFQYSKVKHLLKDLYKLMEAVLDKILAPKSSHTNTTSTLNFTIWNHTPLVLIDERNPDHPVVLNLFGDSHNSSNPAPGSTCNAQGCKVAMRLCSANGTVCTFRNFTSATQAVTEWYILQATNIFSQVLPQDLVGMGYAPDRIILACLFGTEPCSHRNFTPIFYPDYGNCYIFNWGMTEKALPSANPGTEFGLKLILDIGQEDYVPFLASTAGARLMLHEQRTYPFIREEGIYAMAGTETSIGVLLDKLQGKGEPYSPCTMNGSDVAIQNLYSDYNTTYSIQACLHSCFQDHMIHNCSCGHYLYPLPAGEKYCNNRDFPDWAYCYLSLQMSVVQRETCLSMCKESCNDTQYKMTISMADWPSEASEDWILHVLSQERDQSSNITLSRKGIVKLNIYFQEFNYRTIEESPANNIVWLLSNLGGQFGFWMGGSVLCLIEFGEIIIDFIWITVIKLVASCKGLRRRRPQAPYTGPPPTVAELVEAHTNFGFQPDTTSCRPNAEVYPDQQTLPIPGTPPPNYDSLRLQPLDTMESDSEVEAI
T1 sequence (P37091 1-650): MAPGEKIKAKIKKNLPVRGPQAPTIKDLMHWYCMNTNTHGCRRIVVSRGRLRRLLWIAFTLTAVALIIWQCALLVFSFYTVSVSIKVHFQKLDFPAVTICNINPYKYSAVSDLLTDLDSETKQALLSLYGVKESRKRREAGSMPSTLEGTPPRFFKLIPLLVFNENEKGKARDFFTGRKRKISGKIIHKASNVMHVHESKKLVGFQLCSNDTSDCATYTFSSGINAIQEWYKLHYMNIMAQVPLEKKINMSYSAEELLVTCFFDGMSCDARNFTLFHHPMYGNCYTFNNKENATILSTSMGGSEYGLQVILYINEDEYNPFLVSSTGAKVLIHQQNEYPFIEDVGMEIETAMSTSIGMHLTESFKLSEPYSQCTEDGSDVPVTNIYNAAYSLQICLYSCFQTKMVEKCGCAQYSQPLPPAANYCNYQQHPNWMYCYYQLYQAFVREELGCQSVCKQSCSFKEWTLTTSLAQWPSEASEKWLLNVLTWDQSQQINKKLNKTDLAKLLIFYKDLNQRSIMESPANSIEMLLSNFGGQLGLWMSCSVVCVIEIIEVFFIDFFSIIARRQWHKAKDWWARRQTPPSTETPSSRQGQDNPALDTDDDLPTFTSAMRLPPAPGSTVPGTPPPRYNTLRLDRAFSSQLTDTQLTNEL

T2: ENaC (Homo sapiens, UniProt P37088+P51168+P51170)
T2 construct: endogenous in cells; host or cells: primary human bronchial epithelial cultures
T2 sequence (P37088 1-669): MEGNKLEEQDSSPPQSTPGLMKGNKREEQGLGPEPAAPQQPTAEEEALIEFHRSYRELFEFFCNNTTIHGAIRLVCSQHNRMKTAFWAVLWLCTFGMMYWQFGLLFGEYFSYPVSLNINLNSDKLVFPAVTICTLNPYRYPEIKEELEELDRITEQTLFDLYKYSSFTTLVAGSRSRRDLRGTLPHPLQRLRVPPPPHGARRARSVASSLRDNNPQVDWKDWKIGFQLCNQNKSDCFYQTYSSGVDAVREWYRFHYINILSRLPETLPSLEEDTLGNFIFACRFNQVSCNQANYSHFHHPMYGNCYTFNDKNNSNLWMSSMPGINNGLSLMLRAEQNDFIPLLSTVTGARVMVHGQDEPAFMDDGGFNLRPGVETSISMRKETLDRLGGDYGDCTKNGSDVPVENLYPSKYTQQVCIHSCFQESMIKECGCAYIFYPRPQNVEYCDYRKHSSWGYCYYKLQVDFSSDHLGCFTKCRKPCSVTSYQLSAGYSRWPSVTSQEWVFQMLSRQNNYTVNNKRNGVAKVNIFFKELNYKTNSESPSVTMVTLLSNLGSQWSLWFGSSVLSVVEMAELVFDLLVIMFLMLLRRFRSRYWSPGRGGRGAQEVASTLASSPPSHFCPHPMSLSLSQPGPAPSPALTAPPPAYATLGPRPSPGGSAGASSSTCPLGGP
T2 sequence (P51168 1-640): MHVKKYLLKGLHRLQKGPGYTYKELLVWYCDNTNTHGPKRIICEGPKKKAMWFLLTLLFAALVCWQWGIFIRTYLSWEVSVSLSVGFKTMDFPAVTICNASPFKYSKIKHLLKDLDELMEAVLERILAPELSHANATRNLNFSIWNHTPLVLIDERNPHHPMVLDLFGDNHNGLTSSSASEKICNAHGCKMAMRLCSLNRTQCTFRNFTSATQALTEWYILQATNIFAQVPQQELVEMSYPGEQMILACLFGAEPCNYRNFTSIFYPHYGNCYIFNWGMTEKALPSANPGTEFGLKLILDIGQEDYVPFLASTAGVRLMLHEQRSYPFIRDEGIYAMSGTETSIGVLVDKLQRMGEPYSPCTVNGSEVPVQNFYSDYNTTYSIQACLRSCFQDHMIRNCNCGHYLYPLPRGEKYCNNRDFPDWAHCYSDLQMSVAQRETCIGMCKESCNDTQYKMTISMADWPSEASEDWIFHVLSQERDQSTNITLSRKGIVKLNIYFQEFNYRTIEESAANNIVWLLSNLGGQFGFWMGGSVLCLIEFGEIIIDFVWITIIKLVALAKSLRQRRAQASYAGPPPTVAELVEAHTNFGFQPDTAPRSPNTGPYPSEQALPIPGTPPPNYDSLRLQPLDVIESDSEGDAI
T2 sequence (P51170 1-649): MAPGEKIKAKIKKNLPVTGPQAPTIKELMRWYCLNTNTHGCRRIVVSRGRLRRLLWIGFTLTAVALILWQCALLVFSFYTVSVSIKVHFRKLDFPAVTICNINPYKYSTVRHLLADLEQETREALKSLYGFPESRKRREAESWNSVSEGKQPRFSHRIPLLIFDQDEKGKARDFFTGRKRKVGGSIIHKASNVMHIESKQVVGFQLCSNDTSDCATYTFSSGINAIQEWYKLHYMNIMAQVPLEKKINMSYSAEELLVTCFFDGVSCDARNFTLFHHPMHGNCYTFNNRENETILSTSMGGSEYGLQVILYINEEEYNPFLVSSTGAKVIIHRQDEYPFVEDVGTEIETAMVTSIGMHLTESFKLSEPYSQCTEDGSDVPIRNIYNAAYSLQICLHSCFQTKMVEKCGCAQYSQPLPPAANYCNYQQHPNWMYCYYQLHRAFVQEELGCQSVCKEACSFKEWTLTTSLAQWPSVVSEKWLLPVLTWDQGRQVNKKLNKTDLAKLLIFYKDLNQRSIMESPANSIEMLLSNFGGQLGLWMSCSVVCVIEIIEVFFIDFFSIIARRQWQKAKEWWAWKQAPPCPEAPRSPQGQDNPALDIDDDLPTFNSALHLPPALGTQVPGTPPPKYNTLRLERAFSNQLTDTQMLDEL

B1: SPLUNC2: human SPLUNC2 protein (SEQ ID NO:2), co-expressed in oocytes (protein, listed as Homo sapiens)
chain: MLQLWKLVLLCGVLTGTSESLLDNLGNDLSNVVDKLEPVLHEGLETVDNTLKGILEKLKVDLGVLQKSSAWQLAKQKAQEAEKLLNNVISKLLPTNTDIFGLKISNSLILDVKAEPIDDGKGLNLSFPVTANVTVAGPIIGQIINLKASLDLLTAVTIETDPQTHQPVAVLGECASDPTSISLSLLDKHSQIINKFVNSVINTLKSTVSSLLQKEICPLIRIFIHSLDVNVIQQVVDNPQHKTQLQTLI
B2: LPLUNC1: long PLUNC family member co-expressed in oocytes (protein)
chain: TLSPTAVLILGPKVIKEKLTQELKDHNATSILQQLPLLSAMREKPAGGIPVLGSLVNTVLKHIIWLKVITANILQLQVKPSANDQELLVKIPLDMVAGFNTPLVKTIVEFHMTTEAQATIRMDTSASGPTRLVLSDCATSHGSLRIQLLHKLSFLVNALAKQVMNLLVPSLPNLVKNQLCPVIEASFNGMYADLLQLVKVPISLSIDRLEFDLLYPAIKGDTIQLYLGAKLLDSQGKVTKWFNNSAASLTMPTLDNIPFSLIVSQDVVKAAVAAVLSPEEFMVLLDSVLPESAHRLKSSIGLINEKAADKLGSTQIVKILTQDTPEFFIDQGHAKVAQLIVLEVFPSSEALRPLFTLGIEASSEAQFYTKGDQLILNLNNISSDRIQLMNSGIGWFQPDVLKNIITEIIHSILLPNQNGKLRSGVPVSLVKALGFEAAESSLTKDALVLTPASLWKPSSPVSQ
B3: recombinant SPLUNC1 that had been reduced with DTT: recombinant SPLUNC1 reduced with DTT (protein, UniProt Q9NP55 20-256, looked up)
BPI fold-containing family A …: QFGGLPVPLDQTLPLNVNPALPLSPTGLAGSLTNALSNGLLSGGLLGILENLPLLDILKPGGGTSGGLLGGLLGKVTSVIPGLNNIIDIKVTDPQLLELGLVQSPDGHRLYVTIPLGIKLQVNTPLVGASLLRLAVKLDITAEILAVRDKQERIHLVLGDCTHSPGSLQISLLDGLGPLPIQGLLDSLTGILNKVLPELVQGNVCPLVNEVLRGLDITLVHDIVNMLIHGLQFVIKV
modifications: DTT-reduced

Assays:
Format in all cases: cell-based
CFTR = target: T3, CFTR (Homo sapiens, UniProt P13569); test: CFTR activity in Xenopus oocytes co-expressing CFTR and β2 adrenergic receptor; conditions: 10 μM isoproterenol, β2AR co-expressed
T3 construct: expressed in transfected cells; host or cells: Xenopus laevis oocytes
T3 sequence (P13569 whole entry, species assumed): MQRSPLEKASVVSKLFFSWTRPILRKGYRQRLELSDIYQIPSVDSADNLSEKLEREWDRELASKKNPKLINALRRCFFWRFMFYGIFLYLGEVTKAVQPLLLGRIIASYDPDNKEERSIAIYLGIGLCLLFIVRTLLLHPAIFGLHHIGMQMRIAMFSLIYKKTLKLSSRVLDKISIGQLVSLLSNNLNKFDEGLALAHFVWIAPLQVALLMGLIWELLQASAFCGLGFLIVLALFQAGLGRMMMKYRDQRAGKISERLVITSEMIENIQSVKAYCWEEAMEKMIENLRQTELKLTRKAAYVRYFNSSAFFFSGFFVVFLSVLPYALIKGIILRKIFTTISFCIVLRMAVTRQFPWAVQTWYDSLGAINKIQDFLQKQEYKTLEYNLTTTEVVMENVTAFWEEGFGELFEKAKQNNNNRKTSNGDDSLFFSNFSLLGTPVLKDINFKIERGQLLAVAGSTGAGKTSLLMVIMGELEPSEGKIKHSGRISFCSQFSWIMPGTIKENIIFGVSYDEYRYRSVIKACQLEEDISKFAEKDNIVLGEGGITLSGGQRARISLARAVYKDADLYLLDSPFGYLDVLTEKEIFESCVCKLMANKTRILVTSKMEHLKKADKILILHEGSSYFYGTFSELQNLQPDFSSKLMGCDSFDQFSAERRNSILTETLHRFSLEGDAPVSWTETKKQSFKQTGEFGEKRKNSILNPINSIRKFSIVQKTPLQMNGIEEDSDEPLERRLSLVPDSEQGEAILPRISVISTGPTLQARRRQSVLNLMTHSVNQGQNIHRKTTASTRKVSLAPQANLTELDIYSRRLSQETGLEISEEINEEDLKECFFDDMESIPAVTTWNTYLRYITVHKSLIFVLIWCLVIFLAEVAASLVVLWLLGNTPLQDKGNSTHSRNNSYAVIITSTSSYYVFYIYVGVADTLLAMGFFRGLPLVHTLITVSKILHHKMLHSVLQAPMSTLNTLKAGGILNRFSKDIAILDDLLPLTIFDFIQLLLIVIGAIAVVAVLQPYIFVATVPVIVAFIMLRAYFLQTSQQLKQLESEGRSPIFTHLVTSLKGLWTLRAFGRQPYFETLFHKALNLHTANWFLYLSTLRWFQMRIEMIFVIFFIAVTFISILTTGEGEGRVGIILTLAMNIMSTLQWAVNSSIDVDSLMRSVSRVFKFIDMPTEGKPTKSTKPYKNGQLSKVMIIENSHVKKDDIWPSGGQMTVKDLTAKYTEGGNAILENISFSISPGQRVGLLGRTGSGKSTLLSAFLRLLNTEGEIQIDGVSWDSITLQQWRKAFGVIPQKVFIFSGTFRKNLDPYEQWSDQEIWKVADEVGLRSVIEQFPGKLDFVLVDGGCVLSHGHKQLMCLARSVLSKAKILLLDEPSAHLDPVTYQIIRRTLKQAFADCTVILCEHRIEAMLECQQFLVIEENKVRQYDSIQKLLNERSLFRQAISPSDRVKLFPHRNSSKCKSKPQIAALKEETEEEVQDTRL
Description: (§1) Oocyte studies. Xenopus laevis oocytes were harvested and injected as described (Donaldson, et al., J. Biol. Chem. 277:8338 (2002)). Defolliculated healthy stage V-VI oocytes were injected with 0.3 ng of cRNA of each ENaC subunit. Injected oocytes were kept in modified Barth's saline (in mM: 88 NaCl, 1 KCl, 2.4 NaHCO3, 0.3 Ca(NO3)2, 0.41 CaCl2, 0.82 MgSO4, and 15 HEPES, adjusted to pH 7.35 with Tris). Oocytes were studied 24 hr after injection using the two electrode voltage clamp technique as previously described (Donaldson, et al., J. Biol. Chem. 277:8338 (2002)). Oocytes were clamped at a holding potential of […]. The change in amiloride-sensitive whole cell current as an indicator of ENaC activity was determined by subtracting the corresponding current value measured in the presence of 10 μM amiloride from that measured before the application of amiloride.
In both cases, we co-expressed CFTR with the β2 adrenergic receptor (β2AR) which can be stimulated with isoproterenol to raise cAMP and stimulate CFTR (Uezono et al., Receptors Channels 1:233 (1993)).

αβγENaC = target: T1, αβγENaC; test: Amiloride-sensitive whole cell current in Xenopus laevis oocytes expressing ENaC (two electrode voltage clamp); conditions: co-expression with α,β,γ ENaC in oocytes, FIG. 13
Description: as §1

ENaC = target: T2, ENaC; test: Transepithelial voltage under thin film conditions in human bronchial epithelial cultures (microelectrode); conditions: prewashed cultures, PD remeasured 45 min later; DTT-reduced vs 50 ng/ml recombinant SPLUNC1
Excerpt: Tissue procurement and cell culture: Cells were harvested by enzymatic digestion from human bronchial tissue as previously described under a protocol approved by the UNC School of Medicine IRB (Tarran et al., J. Gen. Physiol. 127:591 (2006)). Human excess donor lungs and excised recipient lungs were obtained at the time of lung transplantation from portions of main stem or […] bronchi and cells were harvested by enzymatic digestion. All preparations were maintained at an air-liquid interface in a modified bronchial epithelial medium and used 2-5 weeks after seeding on 12 mm T-Clear inserts (Corning Costar) coated with human placental type VI collagen (Sigma). Phosphate buffered saline (PBS) was used for washing human bronchial epithelial culture mucosal surfaces.
Microelectrode studies. A single-barreled potential difference-sensing electrode was placed in the airway surface liquid by micromanipulator and used in conjunction with a macroelectrode in the serosal solution to measure transepithelial voltage using a voltmeter (World Precision Instruments). […] Transepithelial resistance was routinely measured using the EVOM system (WPI) as previously described (Tarran et al., J. Gen. Physiol. 127:591 (2006)).

Row | Molecule | reduction of amiloride-sensitive ENaC current relative to CTRL (significance) (αβγENaC) | also measured
1 | CC(C)NCC(O)c1ccc(O)c(O)c1 (stereo not shown) [isoproterenol, reference compound] | – | CFTR activation (CFTR): robustly activated
2 | B1 | borderline significance | –
3 | B2 | no significant ENaC current reduction | –
4 | B3 | – | inhibition of the transepithelial PD (SPLUNC1 activity) (ENaC): abolished; also recorded: attenuated
